Experimental findings from the supplement of paper PMC5998384 are described below.

The test system of data set [1] is HeLa Kyoto. Description: thermal stability score vs G1/S (z-score of summed log2 fold changes over temperatures); higher = more thermally stable than in G1/S.
Data set [2] has as its system HeLa Kyoto. Description: solubility in G1/S (NP-40 vs SDS abundance) (log2 ratio); higher = more soluble. Conditions: cell cycle stage: G1/S.
Data set [3] deals with HeLa Kyoto. As to the kind of experiment: melting temperature (median over replicates), in situ; higher = more thermally stable.
Data set [4] relates to HeLa Kyoto. Description: solubility change mitosis vs G1/S (difference of NP-40 vs SDS log2 ratios) (log2 ratio difference); higher = more soluble in mitosis.
Setting [5] is: cell cycle stage: early G1 (4.5 h after nocodazole release).
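Wherever melting temperature (median over replicates), in situ is given: HeLa Kyoto cells synchronized by double thymidine or nocodazole block, proteins quantified by TMT10plex mass spectrometry, three independent biological replicates.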
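Wherever solubility change mitosis vs G1/S (difference of NP-40 vs SDS log2 ratios) is given: synchronized HeLa Kyoto cells (double thymidine block for G1/S, nocodazole release for mitosis), protein amounts in NP-40 versus SDS lysates quantified by mass spectrometry, three biological replicates.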
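Wherever solubility in G1/S (NP-40 vs SDS abundance) is given: HeLa Kyoto cells arrested at G1/S by double thymidine block, proteins quantified by TMT10plex mass spectrometry in mild NP-40 versus SDS extracts, three biological replicates.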
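Wherever thermal stability score vs G1/S (z-score of summed log2 fold changes over temperatures) is given: synchronized HeLa Kyoto cells, proteins quantified by TMT10plex mass spectrometry, three biological replicates, mitosis taken 0.5 h after nocodazole release, G1/S directly after double thymidine block.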

Sequence of GFM1 (chain, as listed by the source): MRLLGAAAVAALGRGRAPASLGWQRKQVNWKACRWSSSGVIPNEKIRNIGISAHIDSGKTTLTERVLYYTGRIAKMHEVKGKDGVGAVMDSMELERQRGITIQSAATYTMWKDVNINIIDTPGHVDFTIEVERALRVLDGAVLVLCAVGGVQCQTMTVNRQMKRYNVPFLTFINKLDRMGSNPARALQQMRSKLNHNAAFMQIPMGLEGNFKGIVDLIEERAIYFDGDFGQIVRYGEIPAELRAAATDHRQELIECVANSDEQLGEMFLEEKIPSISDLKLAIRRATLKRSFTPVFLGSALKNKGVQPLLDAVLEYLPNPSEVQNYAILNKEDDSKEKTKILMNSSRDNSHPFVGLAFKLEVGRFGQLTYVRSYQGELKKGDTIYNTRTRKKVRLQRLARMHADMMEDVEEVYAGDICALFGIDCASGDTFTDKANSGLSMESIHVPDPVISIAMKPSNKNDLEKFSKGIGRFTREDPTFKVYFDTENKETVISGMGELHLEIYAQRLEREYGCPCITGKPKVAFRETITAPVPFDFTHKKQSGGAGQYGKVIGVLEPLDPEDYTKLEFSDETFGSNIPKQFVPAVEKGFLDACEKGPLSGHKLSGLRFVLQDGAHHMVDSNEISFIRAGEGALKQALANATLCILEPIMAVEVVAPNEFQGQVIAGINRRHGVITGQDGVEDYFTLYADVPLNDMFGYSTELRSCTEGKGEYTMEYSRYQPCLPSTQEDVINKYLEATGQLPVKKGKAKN
Sequence of RSBN1 (chain, as listed by the source): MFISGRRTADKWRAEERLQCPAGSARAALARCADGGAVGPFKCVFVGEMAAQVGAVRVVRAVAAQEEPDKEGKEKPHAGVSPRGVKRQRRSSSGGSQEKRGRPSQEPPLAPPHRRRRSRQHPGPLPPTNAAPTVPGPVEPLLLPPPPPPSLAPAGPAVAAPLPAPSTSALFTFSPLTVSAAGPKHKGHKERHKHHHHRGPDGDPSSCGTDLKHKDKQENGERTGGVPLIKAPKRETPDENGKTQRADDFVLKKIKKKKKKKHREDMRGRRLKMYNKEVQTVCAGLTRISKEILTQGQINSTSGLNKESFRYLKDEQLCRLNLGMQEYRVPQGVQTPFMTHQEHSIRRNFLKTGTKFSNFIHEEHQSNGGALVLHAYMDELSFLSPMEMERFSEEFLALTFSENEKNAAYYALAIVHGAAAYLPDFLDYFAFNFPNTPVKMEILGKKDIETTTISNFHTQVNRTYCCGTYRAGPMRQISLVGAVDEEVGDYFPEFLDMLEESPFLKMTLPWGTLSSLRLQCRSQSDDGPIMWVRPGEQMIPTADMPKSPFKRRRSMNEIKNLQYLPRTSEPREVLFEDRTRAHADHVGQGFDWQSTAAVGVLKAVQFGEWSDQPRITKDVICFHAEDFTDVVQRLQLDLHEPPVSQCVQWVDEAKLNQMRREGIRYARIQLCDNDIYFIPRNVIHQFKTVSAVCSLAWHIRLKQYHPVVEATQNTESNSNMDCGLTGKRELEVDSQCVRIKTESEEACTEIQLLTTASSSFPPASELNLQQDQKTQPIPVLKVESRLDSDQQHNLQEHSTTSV
Sequence of FXR2 (chain, as listed by the source): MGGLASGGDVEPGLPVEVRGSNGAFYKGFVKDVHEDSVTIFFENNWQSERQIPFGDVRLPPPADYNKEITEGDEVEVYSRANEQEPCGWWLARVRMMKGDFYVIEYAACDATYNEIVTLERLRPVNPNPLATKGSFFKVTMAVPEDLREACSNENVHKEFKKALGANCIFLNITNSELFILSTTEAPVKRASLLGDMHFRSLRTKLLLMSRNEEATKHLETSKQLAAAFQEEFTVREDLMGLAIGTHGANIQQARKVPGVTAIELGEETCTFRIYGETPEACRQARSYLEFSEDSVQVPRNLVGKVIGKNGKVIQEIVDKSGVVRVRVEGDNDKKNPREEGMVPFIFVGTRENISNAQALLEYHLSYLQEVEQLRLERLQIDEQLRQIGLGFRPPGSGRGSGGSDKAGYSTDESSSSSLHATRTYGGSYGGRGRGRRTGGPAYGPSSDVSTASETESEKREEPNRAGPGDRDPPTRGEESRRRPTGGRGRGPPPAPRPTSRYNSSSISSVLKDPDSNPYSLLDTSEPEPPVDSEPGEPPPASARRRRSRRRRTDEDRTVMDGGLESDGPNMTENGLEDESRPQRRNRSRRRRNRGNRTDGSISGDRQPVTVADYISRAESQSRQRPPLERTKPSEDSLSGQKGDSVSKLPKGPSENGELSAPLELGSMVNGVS

Take RAB1B: the thermal stability score with HeLa Kyoto [1] (setting [5]) was -0.394; in the data set on HeLa Kyoto [1] (cell cycle stage: mitosis), -2.04. The “solubility in G1/S (log2)” value in the data set with HeLa Kyoto [2] worked out at 0.0965. Moreover, the melting temperature amounted to 57.8 °C in the data set on HeLa Kyoto [3] (cell cycle stage: G1/S) and 58 °C in the data set on HeLa Kyoto [3] (cell cycle stage: mitosis). Besides, the “solubility change mitosis (log2)” value in the data set with HeLa Kyoto [4] was -0.0321.
With FXR2, the values for the thermal stability score with HeLa Kyoto [1] (setting [5]) and in the data set on HeLa Kyoto [1] (cell cycle stage: mitosis) were -1.1 and -0.108, respectively. In addition, in the data set on HeLa Kyoto [2], the “solubility in G1/S (log2)” value is -1.13. For the same substance, the values for the melting temperature in the data set with HeLa Kyoto [3] (cell cycle stage: G1/S) and in the data set with HeLa Kyoto [3] (cell cycle stage: mitosis) were 52.6 °C and 51.7 °C, respectively. Also, the “solubility change mitosis (log2)” value in the data set with HeLa Kyoto [4] is 0.38.
For the substance GFM1, the results for the thermal stability score in the data set on HeLa Kyoto [1] (setting [5]) and in the data set on HeLa Kyoto [1] (cell cycle stage: mitosis) were -0.899 and 0.337, respectively. In the data set on HeLa Kyoto [2], the “solubility in G1/S (log2)” value is 0.0415. Further, the melting temperature turned out to be 50.3 °C in the data set with HeLa Kyoto [3] (cell cycle stage: G1/S) and 50.5 °C in the data set on HeLa Kyoto [3] (cell cycle stage: mitosis). For the same substance, the “solubility change mitosis (log2)” value in the data set with HeLa Kyoto [4] is -0.108.
Take RSBN1: the results for the thermal stability score in the data set with HeLa Kyoto [1] (setting [5]) and in the data set on HeLa Kyoto [1] (cell cycle stage: mitosis) were -1.37 and -1.2, respectively. Moreover, the “solubility in G1/S (log2)” value in the data set on HeLa Kyoto [2] was -0.345. Moreover, in the data set on HeLa Kyoto [3] (cell cycle stage: mitosis), the melting temperature is 53.1 °C. Also, in the data set with HeLa Kyoto [4], the “solubility change mitosis (log2)” value is 0.0741.
In the case of “MAASVAAAARRLRRAIRRSPAWRGLSHRPLSSEPPAAKASAVRAAFLNFFRDRHGHRLVPSASVRPRGDPSLLFVNAGMNQFKPIFLGTVDPRSEMAGFRRVANSQKCVRAGGHHNDLEDVGRDLSHHTFFEMLGNWAFGGEYFKEEACNMAWELLTQVYGIPEERLWISYFDGDPKAGLDPDLETRDIWLSLGVPASRVLSFGPQENFWEMGDTGPCGPCTEIHYDLAGGVGAPQLVELWNLVFMQHNREADGSLQPLPQRHVDTGMGLERLVAVLQGKHSTYDTDLFSPLLNAIQQGCRAPPYLGRVGVADEGRTDTAYRVVADHIRTLSVCISDGIFPGMSGPPLVLRRILRRAVRFSMEILKAPPGFLGSLVPVVVETLGDAYPELQRNSAQIANLVSEDEAAFLASLERGRRIIDRTLRTLGPSDMFPAEVAWSLSLCGDLGLPLDMVELMLEEKGVQLDSAGLERLAQEEAQHRARQAEPVQKQGLWLDVHALGELQRQGVPPTDDSPKYNYSLRPSGSYEFGTCEAQVLQLYTEDGTAVASVGKGQRCGLLLDRTNFYAEQGGQASDRGYLVRAGQEDVLFPVARAQVCGGFILHEAVAPECLRLGDQVQLHVDEAWRLGCMAKHTATHLLNWALRQTLGPGTEQQGSHLNPEQLRLDVTTQTPLTPEQLRAVENTVQEAVGQDEAVYMEEVPLALTAQVPGLRSLDEVYPDPVRVVSVGVPVAHALDPASQAALQTSVELCCGTHLLRTGAVGDLVIIGDRQLSKGTTRLLAVTGEQAQQARELGQSLAQEVKAATERLSLGSRDVAEALRLSKDIGRLIEAVETAVMPQWQRRELLATVKMLQRRANTAIRKLQMGQAAKKTQELLERHSKGPLIVDTVSAESLSVLVKVVRQLCEQAPSTSVLLLSPQPMGKVLCACQVAQGAMPTFTAEAWALAVCSHMGGKAWGSRVVAQGTGSTTDLEAALSIAQTYALSQL [AARS2]”, the thermal stability score in the data set on HeLa Kyoto [1] (setting [5]) is -0.609; in the data set with HeLa Kyoto [1] (cell cycle stage: mitosis) it was 0.833. For the same substance, the “solubility in G1/S (log2)” value with HeLa Kyoto [2] was -0.0312. For the same substance, the figures for the melting temperature with HeLa Kyoto [3] (cell cycle stage: G1/S) and in the data set on HeLa Kyoto [3] (cell cycle stage: mitosis) were 49.9 °C and 50 °C, respectively. Further, the “solubility change mitosis (log2)” value with HeLa Kyoto [4] is -0.0878.
In the case of “MSALEWYAHKSLGDGIFWIQERFYESGNRANIWLVRGSEQDVVIDTGLGLRSLPEYLYSSGLLQDREAKEDAARRPLLAVATHVHFDHSGGLYQFDRVAVHHAEAEALARGDNFETVTWLSDSEVVRTPSPGWRARQFRVQAVQPTLILQDGDVINLGDRQLTVMHMPGHSRGSICLHDKDRKILFSGDVVYDGSLIDWLPYSRISDYVGTCERLIELVDRGLVEKVLPGHFNTFGAERLFRLASNYISKAGICHKVSTFAMRSLASLALRVTNSRTSP [MBLAC2]”, the results for the thermal stability score with HeLa Kyoto [1] (setting [5]) and in the data set on HeLa Kyoto [1] (cell cycle stage: mitosis) were -1.94 and -1.79, respectively. In addition, the “solubility in G1/S (log2)” value in the data set with HeLa Kyoto [2] is -0.203. The melting temperature stood at 55.4 °C with HeLa Kyoto [3] (cell cycle stage: G1/S) and 54.6 °C with HeLa Kyoto [3] (cell cycle stage: mitosis). In addition, in the data set with HeLa Kyoto [4], the “solubility change mitosis (log2)” value is 0.0124.
Take “MFAKATRNFLREVDADGDLIAVSNLNDSDKLQLLSLVTKKKRFWCWQRPKYQFLSLTLGDVLIEDQFPSPVVVESDFVKYEGKFANHVSGTLETALGKVKLNLGGSSRVESQSSFGTLRKQEVDLQQLIRDSAERTINLRNPVLQQVLEGRNEVLCVLTQKITTMQKCVISEHMQVEEKCGGIVGIQTKTVQVSATEDGNVTKDSNVVLEIPAATTIAYGVIELYVKLDGQFEFCLLRGKQGGFENKKRIDSVYLDPLVFREFAFIDMPDAAHGISSQDGPLSVLKQATLLLERNFHPFAELPEPQQTALSDIFQAVLFDDELLMVLEPVCDDLVSGLSPTVAVLGELKPRQQQDLVAFLQLVGCSLQGGCPGPEDAGSKQLFMTAYFLVSALAEMPDSAAALLGTCCKLQIIPTLCHLLRALSDDGVSDLEDPTLTPLKDTERFGIVQRLFASADISLERLKSSVKAVILKDSKVFPLLLCITLNGLCALGREHS [DFNA5]”: the thermal stability score with HeLa Kyoto [1] (setting [5]) turned out to be 1.33; in the data set on HeLa Kyoto [1] (cell cycle stage: mitosis) it was 2.07. The “solubility in G1/S (log2)” value in the data set with HeLa Kyoto [2] is -0.0213. Also, the melting temperature in the data set on HeLa Kyoto [3] (cell cycle stage: G1/S) is 52.8 °C; in the data set with HeLa Kyoto [3] (cell cycle stage: mitosis), 53.7 °C. In addition, the “solubility change mitosis (log2)” value in the data set with HeLa Kyoto [4] is -0.126.
